How the values were obtained:
[1] = target: human activated protein C (human) (UniProt P04070)
[2] = target: human activated protein C (human) (UniProt P04070); remark: listed apart in the source
[3] = target: human activated protein C (human) (UniProt P04070); remark: listed apart in the source
[4] = target: human activated protein C (human) (UniProt P04070); remark: listed apart in the source
[5] = target: human activated protein C (human) (UniProt P04070); test: ELISA; hAPC or hPC coated directly on Maxisorp plates at 100 ng/well in PBS/Ca2+; antibodies titrated, 1 h at RT; detection with HRP anti-human Fc
[6] = target: human activated protein C (human) (UniProt P04070); test: ELISA; APC-binding ELISA of the purified Fabs on human APC and Gla-domainless APC; format not told

| inhibition of APC amidolytic activity (Spectrozyme PCa), IC50 [1] [nM] | maximal inhibition of APC amidolytic activity (Spectrozyme PCa), mAb 0.5-500 nM [1] [%] | TM–TGA in normal human plasma, increase of thrombin generation, EC50 [2] [nM] | Protac-aPTT in normal human plasma, inhibition of APC anticoagulant activity, IC50 [3] [nM] | Protac-aPTT in normal human plasma, maximal inhibition of APC anticoagulant activity [3] [%] | Protac-aPTT in FVIII-antibody-treated normal human plasma, IC50 [4] [nM] | Protac-aPTT in hemophilia A plasma, inhibition of APC activity, IC50 [4] [nM] | Protac-aPTT in hemophilia A plasma, maximal inhibition of APC activity [4] [%] | EC50 [5] [nM] | EC50 [6] [nM] | Binder |
| --- | --- | --- | --- | --- | --- | --- | --- | --- | --- | --- |
| 4.8 | 98 | 38 | 7 | 93 | 5 | 5 | 87 | 0.4 | – | type I anti-APC mAb TPP-2312 (BAY1316786) (antibody, V domains shown) VH: EVQLLESGGGLVQPGGSLRLSCAASGFTFSSYWMSWVRQAPGKGLEWVSGVSWNGARTHYADSVKGRFTISRDNSKNTLYLQMNSLRAEDTAVYYCALTGRSGWMRFPNWFDPWGQGTLVTVSS VL: QSVLTQPPSVSGAPGQRVTISCTGSSSNIGAAYDVHWYQQLPGTAPKLLIYGNNKRPSGVPDRFSGSKSGTSASLAITGLQAEDEADYYCQSYDSSLSGSVFGGGTKLTVL |
| – | – | – | – | – | – | – | – | – | 2 to 4 | C25K23Fab (type I Fab, TTP-2781) (Fab, V domains shown) VH: EVQLLESGGGLVQPGGSLRLSCAASGFTFSSYWMSWVRQAPGKGLEWVSGVSWNGSRTHYADSVKGRFTISRDNSKNTLYLQMNSLRAEDTAVYYCALTGRSGWMRFPNWFDPWGQGTLVTVTS VL: QSVLTQPPSASGTPGQRVTISCTGSSSNIGAAYDVHWYQQLPGTAPKLLIYGNNKRPSGVPDRFSGSKSGTSASLAISGLRSEDEADYYCQSYDSSLSGSVFGGGTKLTVL |

Source: publication PMC7293249
